Measured values as given in the Immune Epitope Database (IEDB).

Columns and labels:
HLA-A*02:06 = assay: IEDB peptide-MHC binding, purified MHC/competitive/radioactivity; ≥ and ≤ were set here for values at or beyond the usual limits of such assays
HLA-A*02:03 = assay: as above
HLA-A*02:02 = assay: as above
HLA-A*02:01 = assay: as above
HLA-A*68:02 = assay: IEDB peptide-MHC binding, cellular MHC/competitive/fluorescence; ≥ and ≤ were set here for values at or beyond the usual limits of such assays
[1] = source organism: Vaccinia virus WR
[2] = source organism: Mammarenavirus brazilense
[3] = source organism: Hepacivirus hominis
[4] = source organism: Mammarenavirus lassaense

GLYIPGTSVI showed an IC50 (HLA-A*02:06; [1]) of 3620 nM, an IC50 (HLA-A*02:03; [1]) of 0.19 nM and an IC50 (HLA-A*02:02; [1]) of 92 nM. The IC50 (HLA-A*02:01; [1]) was 1570 nM and the IC50 (HLA-A*68:02; [1]) was ≥ 70000 nM.
AQFLYLYAL was tested, and the IC50 (HLA-A*02:06; source organism: SARS-CoV1) was 0.35 nM, the IC50 (HLA-A*02:03; source organism: SARS-CoV1) was 6.2 nM and the IC50 (HLA-A*02:02; source organism: SARS-CoV1) was 0.92 nM. The IC50 (HLA-A*02:01; source organism: SARS-CoV1) was 0.39 nM and the IC50 (HLA-A*68:02; source organism: SARS-CoV1) was 9620 nM.
In the case of PTWLGAAITL, the IC50 (HLA-A*02:06; [1]) is reported as 1770 nM, the IC50 (HLA-A*02:03; [1]) is reported as 1010 nM and the IC50 (HLA-A*02:02; [1]) is reported as 1360 nM. For the same sequence, the IC50 (HLA-A*02:01; [1]) was 4810 nM and the IC50 (HLA-A*68:02; [1]) was 7400 nM.
In the case of GLLEWIFRA, the IC50 (HLA-A*02:06; [2]) is reported as 7.1 nM, the IC50 (HLA-A*02:03; [2]) is reported as 226 nM and the IC50 (HLA-A*02:02; [2]) is reported as 22 nM. It also gave an IC50 (HLA-A*02:01; [2]) of 1.2 nM and an IC50 (HLA-A*68:02; [2]) of 53100 nM.
In the case of ILHNIYRLFT, the IC50 (HLA-A*02:06; [1]) is reported as 1210 nM, the IC50 (HLA-A*02:03; [1]) is reported as 11 nM and the IC50 (HLA-A*02:02; [1]) is reported as 125 nM. The IC50 (HLA-A*02:01; [1]) was 231 nM and the IC50 (HLA-A*68:02; [1]) was 40900 nM.
IMEIVSHLRA was tested, and the IC50 (HLA-A*02:06; [1]) was 4410 nM, the IC50 (HLA-A*02:03; [1]) was 396 nM and the IC50 (HLA-A*02:02; [1]) was 955 nM. It also gave an IC50 (HLA-A*02:01; [1]) of 1190 nM and an IC50 (HLA-A*68:02; [1]) of 19700 nM.
In the case of FLARKGIDT, the IC50 (HLA-A*02:06; [1]) is reported as 3040 nM, the IC50 (HLA-A*02:03; [1]) is reported as 318 nM and the IC50 (HLA-A*02:02; [1]) is reported as 1020 nM. The IC50 (HLA-A*02:01; [1]) was 1420 nM and the IC50 (HLA-A*68:02; [1]) was ≥ 70000 nM.
GIIITVGMLI gave an IC50 (HLA-A*02:06; [1]) of 1130 nM, an IC50 (HLA-A*02:03; [1]) of 595 nM and an IC50 (HLA-A*02:02; [1]) of 3580 nM. The IC50 (HLA-A*02:01; [1]) was 945 nM and the IC50 (HLA-A*68:02; [1]) was 9200 nM.
For LAELLEMKYA, the IC50 (HLA-A*02:06; [1]) was 2450 nM, the IC50 (HLA-A*02:03; [1]) was 1040 nM and the IC50 (HLA-A*02:02; [1]) was 999 nM. The IC50 (HLA-A*02:01; [1]) was 2510 nM and the IC50 (HLA-A*68:02; [1]) was 23300 nM.
For LLVTLAILTA, the IC50 (HLA-A*02:06; source organism: SARS-CoV1) was 32 nM, the IC50 (HLA-A*02:03; source organism: SARS-CoV1) was 43 nM and the IC50 (HLA-A*02:02; source organism: SARS-CoV1) was 4.4 nM. For the same sequence, the IC50 (HLA-A*02:01; source organism: SARS-CoV1) was 33 nM and the IC50 (HLA-A*68:02; source organism: SARS-CoV1) was 16700 nM.
LLSVGVGIYL gave an IC50 (HLA-A*02:06; [3]) of 575 nM, an IC50 (HLA-A*02:03; [3]) of 568 nM and an IC50 (HLA-A*02:02; [3]) of 12 nM. For the same sequence, the IC50 (HLA-A*02:01; [3]) was 18 nM and the IC50 (HLA-A*68:02; [3]) was 20100 nM.
With GLLLLCVGV the IC50 (HLA-A*02:06; [3]) was 892 nM, the IC50 (HLA-A*02:03; [3]) was 285 nM and the IC50 (HLA-A*02:02; [3]) was 479 nM. The IC50 (HLA-A*02:01; [3]) was 43 nM and the IC50 (HLA-A*68:02; [3]) was 49200 nM.
With IAMWLLLLSI the IC50 (HLA-A*02:06; source organism: SARS-CoV1) was 498 nM, the IC50 (HLA-A*02:03; source organism: SARS-CoV1) was 1900 nM and the IC50 (HLA-A*02:02; source organism: SARS-CoV1) was 86 nM. It also gave an IC50 (HLA-A*02:01; source organism: SARS-CoV1) of 216 nM and an IC50 (HLA-A*68:02; source organism: SARS-CoV1) of 17200 nM.
RLHGLEAFSL gave an IC50 (HLA-A*02:06; [3]) of 649 nM, an IC50 (HLA-A*02:03; [3]) of 602 nM and an IC50 (HLA-A*02:02; [3]) of 35 nM. It also gave an IC50 (HLA-A*02:01; [3]) of 224 nM and an IC50 (HLA-A*68:02; [3]) of 18500 nM.
In the case of YIEDELRRAA, the IC50 (HLA-A*02:06; [1]) is reported as 204 nM, the IC50 (HLA-A*02:03; [1]) is reported as 166 nM and the IC50 (HLA-A*02:02; [1]) is reported as 628 nM. The IC50 (HLA-A*02:01; [1]) was 573 nM and the IC50 (HLA-A*68:02; [1]) was 24800 nM.
LLMEGLKLLS showed an IC50 (HLA-A*02:06; [4]) of 1750 nM, an IC50 (HLA-A*02:03; [4]) of 40 nM and an IC50 (HLA-A*02:02; [4]) of 78 nM. It also gave an IC50 (HLA-A*02:01; [4]) of 12 nM and an IC50 (HLA-A*68:02; [4]) of 8470 nM.
Sequence LIYRQLTSNV has an IC50 (HLA-A*02:06; [1]) of 169 nM, an IC50 (HLA-A*02:03; [1]) of 7.5 nM and an IC50 (HLA-A*02:02; [1]) of 79 nM. For the same sequence, the IC50 (HLA-A*02:01; [1]) was 663 nM and the IC50 (HLA-A*68:02; [1]) was 6390 nM.
